{"source": "the RNAGym collection of RNA variant scans (doi:10.7554/elife.80360)", "parents": {"B1": {"name": "HDV Ribozyme (parent)", "chain": "GGCCGGCAUGGUCCCAGCCUCCUCGCUGGCGCCGGCUGGGCAACAUUCCGAGGGGACCGUCCCCUCGGUAAUGGCGAAUGGGACCCA"}}}
{"variants_of": "B1", "assay": "self-cleavage, relative activity (ratio to wild type); higher = more cleavage; co-transcriptional"}
{"variant": "GGCCGGCAUGGUCCCAGCCUCCUCGCUGGCGCCGGCUGGGCAACAUGCCGAGGGUACCGUCCCCUCGGUAAUGGCGAAUGGGACCCA", "self-cleavage": 1.07}
{"variant": "GGCCGGCAUGGUCCCAGCCUCCUCGCUGGCGCCGGCUGGGCAACAUGCCGAGGGGACCGUCCCCUCGGUAAUAGCGAAUGGGACCCA", "self-cleavage": 0.852}
{"variant": "GGCCGGCAUGGUCCCAGCCUCCUCGCUGGCGCCGGCUGGGCAACAUGCCGAGGGGACCGUCCCCUCGGUAAUCGCGAAUGGGACCCA", "self-cleavage": 0.534}
{"variant": "GGCCGGCAUGGUCCCAGCCUCCUCGCUGGCGCCGGCUGGGCAACAUGCCGAGGGGACCGUCCCCUCGGUAAUUGCGAAUGGGACCCA", "self-cleavage": 0.458}
{"variant": "GGCCGGCAUGGUCCCAGCCUCCUCGCUGGCGCCGGCUGGGCAACAUGCCGAGGGGACCGUCCCCUCGGUAAUGUCGAAUGGGACCCA", "self-cleavage": 0.434}
{"variant": "GGCCGGCAUGGUCCCAGCCUCCUCGCUGGCGCCGGCUGGGCAACAUGCCGAGGGGACCGUCCCCUCGGUAAUGGCUAAUGGGACCCA", "self-cleavage": 1.22}
{"variant": "GGCCGGCAUGGUCCCAGCCUCCUCGCUGGCGCCGGCUGGGCAACAUGCCGAGGGGACCGACCCCUCGGUAAUGGCGAAUGGGACCCA", "self-cleavage": 1.33}
{"variant": "GGCCGGCAUGGUCCCAGCCUCCUCGCUGGCGCCGGCUGGGCAACAUGCCGAGGGGACCGUCCCCACGGUAAUGGCGAAUGGGACCCA", "self-cleavage": 0.942}
{"variant": "GGCCGGCAUGGUCCCAGCCUCCUCGCUGGCGCCGGCUGGGCAACAUGCCGAGGGGACCGUCCCCUCGGGAAUGGCGAAUGGGACCCA", "self-cleavage": 0.776}
{"variant": "GGCCGGCAUGGUCCCAGCCUCCUCGCUGGCGCCGGCUGGGCAACAUGCCGAGGGGACCGUCCCCUCGGUAAGGGCGAAUGGGACCCA", "self-cleavage": 0.623}
{"variant": "GGCCGGCAUGGUCCCAGCCUCCUCGCUGGCGCCGGCUGGGCAACAUUACGAGGGGACCGUCCCCUCGGUAAUGGCGAAUGGGACCCA", "self-cleavage": 0.989}
{"variant": "GGCCGGCAUGGUCCCAGCCUCCUCGCUGGCGCCGGCUGGGCAACAUUACGUGGGGACCGUCCCCUCGGUAAUGGCGAAUGGGACCCA", "self-cleavage": 1.1}
{"variant": "GGCCGGCAUGGUCCCAGCCUCCUCGCUGGCGCCGGCUGGGCAACAUUACGAGGGGUCCGUCCCCUCGGUAAUGGCGAAUGGGACCCA", "self-cleavage": 1.03}
{"variant": "GGCCGGCAUGGUCCCAGCCUCCUCGCUGGCGCCGGCUGGGCAACAUUACGAGGGGACCGUCCCCUCGGUUAUGGCGAAUGGGACCCA", "self-cleavage": 0.985}
{"variant": "GGCCGGCAUGGUCCCAGCCUCCUCGCUGGCGCCGGCUGGGCAACAUUACGAGGGGACCGUCCCCUCGGUAAUGGCGACUGGGACCCA", "self-cleavage": 0.169}
{"variant": "GGCCGGCAUGGUCCCAGCCUCCUCGCUGGCGCCGGCUGGGCAACAUUACGAGGGGACCGUCCCCUCGGUAAUGGCGAGUGGGACCCA", "self-cleavage": 0.776}
{"variant": "GGCCGGCAUGGUCCCAGCCUCCUCGCUGGCGCCGGCUGGGCAACAUUACGAGGGGACCGUCCCCUCGGUAAUGGCGAUUGGGACCCA", "self-cleavage": 0.242}
{"variant": "GGCCGGCAUGGUCCCAGCCUCCUCGCUGGCGCCGGCUGGGCAACAUUACGAGGGGACCGUCCCCUCGGUAAUGGCGAAUGGGUCCCA", "self-cleavage": 0.465}
{"variant": "GGCCGGCAUGGUCCCAGCCUCCUCGCUGGCGCCGGCUGGGCAACAUUAAGAGGGGACCGUCCCCUCGGUAAUGGCGAAUGGGACCCA", "self-cleavage": 1.16}
{"variant": "GGCCGGCAUGGUCCCAGCCUCCUCGCUGGCGCCGGCUGGGCAACAUUAUGAGGGGACCGUCCCCUCGGUAAUGGCGAAUGGGACCCA", "self-cleavage": 1.23}
{"variant": "GGCCGGCAUGGUCCCAGCCUCCUCGCUGGCGCCGGCUGGGCAACAUUACGAGGGGAGCGUCCCCUCGGUAAUGGCGAAUGGGACCCA", "self-cleavage": 1.18}
{"variant": "GGCCGGCAUGGUCCCAGCCUCCUCGCUGGCGCCGGCUGGGCAACAUUACGAGGGGACCGUCUCCUCGGUAAUGGCGAAUGGGACCCA", "self-cleavage": 1.05}
{"variant": "GGCCGGCAUGGUCCCAGCCUCCUCGCUGGCGCCGGCUGGGCAACAUUACGAGGGGACCGUCCGCUCGGUAAUGGCGAAUGGGACCCA", "self-cleavage": 0.73}
{"variant": "GGCCGGCAUGGUCCCAGCCUCCUCGCUGGCGCCGGCUGGGCAACAUUACGAGGGGACCGUCCUCUCGGUAAUGGCGAAUGGGACCCA", "self-cleavage": 1.07}
{"variant": "GGCCGGCAUGGUCCCAGCCUCCUCGCUGGCGCCGGCUGGGCAACAUUACGAGGGGACCGUCCCCUCGGUAAUGGCGAAUGGGAACCA", "self-cleavage": 1.08}
{"variant": "GGCCGGCAUGGUCCCAGCCUCCUCGCUGGCGCCGGCUGGGCAACAUUACGAGGGGACCGUCCCCUCGGUAAUGGCGAAUGGGAUCCA", "self-cleavage": 0.819}
{"variant": "GGCCGGCAUGGUCCCAGCCUCCUCGCUGGCGCCGGCUGGGCAACAUUACGAGGGGACCGUCCCCUCGGUAAUGGCGAAUGGGACCGA", "self-cleavage": 1.04}
{"variant": "GGCCGGCAUGGUCCCAGCCUCCUCGCUGGCGCCGGCUGGGCAACAUUACGAUGGGACCGUCCCCUCGGUAAUGGCGAAUGGGACCCA", "self-cleavage": 0.974}
{"variant": "GGCCGGCAUGGUCCCAGCCUCCUCGCUGGCGCCGGCUGGGCAACAUUACGAGCGGACCGUCCCCUCGGUAAUGGCGAAUGGGACCCA", "self-cleavage": 1.2}
{"variant": "GGCCGGCAUGGUCCCAGCCUCCUCGCUGGCGCCGGCUGGGCAACAUUACGAGGGAACCGUCCCCUCGGUAAUGGCGAAUGGGACCCA", "self-cleavage": 0.972}
{"variant": "GGCCGGCAUGGUCCCAGCCUCCUCGCUGGCGCCGGCUGGGCAACAUUACGAGGGGACCGUCCCCUCCGUAAUGGCGAAUGGGACCCA", "self-cleavage": 0.856}
{"variant": "GGCCGGCAUGGUCCCAGCCUCCUCGCUGGCGCCGGCUGGGCAACAUUACGAGGGGACCGUCCCCUCGAUAAUGGCGAAUGGGACCCA", "self-cleavage": 1.06}
